{"source": "patent US20050048070A1", "key": {"[1]": {"molecular_target": "lysate of the colon cancer cell line colon 137 (COU-1 antigen positive)", "experiment": "ELISA on coated colon 137 lysate"}, "[2]": {"molecular_target": "K8(1-124)/K18(1-124) heterotypic complex (human) (UniProt P05787)", "experiment": "SPR (BIAcore), complex immobilized, COU-1 injected"}, "[3]": {"molecular_target": "K8(1-124)/intact K18 heterotypic complex (human) (UniProt P05787)", "experiment": "SPR (BIAcore), complex immobilized, COU-1 injected"}}}
{"binder": "human monoclonal IgM antibody COU-1 (antibody, V domains shown) VH: GAEVKKPGASVKVSCKASDYTFSSYYMHWVRQAPGQGLEWMGIINPSGGSTSYAQKFQGRVTMTRDTSTNTVYMELSSLRSEDTAVYYCARDQVVVAATLSNYGMDVWGQGTTVTVSS VL: ELTQSPGTLSLSPGERATLSCRASQSVSSSYLAWYQQKPGQAPRLLIYDASNRATGIPARFSGSGSGTDFTLTISSLEPEDFAVYYCQQGTNWGIAFGQGTRLDIKR", "values": [{"measurement": "concentration needed for saturation", "setting": "[1]", "result": 1, "unit": "µg/mL"}, {"measurement": "Ka", "setting": "[2]", "result": "9.5e+08", "unit": "M⁻¹"}, {"measurement": "Kd", "setting": "[2]", "result": 1.05, "unit": "nM"}, {"measurement": "koff", "setting": "[2]", "result": 0.0003, "unit": "s⁻¹"}, {"measurement": "kon", "setting": "[2]", "result": 280000, "unit": "M⁻¹ s⁻¹"}, {"measurement": "Ka", "setting": "[3]", "result": "1.4e+09", "unit": "M⁻¹"}, {"measurement": "Kd", "setting": "[3]", "result": 0.71, "unit": "nM"}, {"measurement": "koff", "setting": "[3]", "result": 0.00012, "unit": "s⁻¹"}, {"measurement": "kon", "setting": "[3]", "result": 170000, "unit": "M⁻¹ s⁻¹"}]}
{"binder": "recombinant B9165 Fab (Fab, V domains shown) VH: GAEVKKPGASVKVSCKASDYTFSSYYMHWVRQAPGQGLEWMGIINPSGGSTSYAQKFQGRVTMTRDTSTNTVYMELSSLRSEDTAVYYCARDQVVVAATLSNYGMDVWGQGTTVTVSS VL: ELTQSPGTLSLSPGERATLSCRASQSVSSSYLAWYQQKPGQAPRLLIYDASNRATGIPARFSGSGSGTDFTLTISSLEPEDFAVYYCQQGTNWGIAFGQGTRLDIKR", "values": [{"measurement": "concentration needed for saturation", "setting": "[1]", "result": 20, "unit": "µg/mL"}]}
